Consider one protein from FireProtDB (doi:10.1021/bi991296s).

“And” between values parts separate entries of the source, which are not always exact repeats. Identical values can stand only once.

For the series the following is noted: Escherichia coli (strain K12), pH 7.8, 25 °C, Urea, transition: 4, whole UniProt chain shown.
[1] abbreviates: SAXS, Potassium phosphate 10 mM.
Setting [2] is: SEC, Potassium phosphate 100 mM.

B1: Tryptophan synthase alpha chain wild type, P0A877 (protein)
chain: MERYESLFAQLKERKEGAFVPFVTLGDPGIEQSLKIIDTLIEAGADALELGIPFSDPLADGPTIQNATLRAFAAGVTPAQCFEMLALIRQKHPTIPIGLLMYANLVFNKGIDEFYAQCEKVGVDSVLVADVPVEESAPFRQAALRHNVAPIFICPPNADDDLLRQIASYGRGYTYLLSRAGVTGAENRAALPLNHLVAKLKEYNAAPPLQGFGISAPDQVKAAIDAGAAGAISGSAIVKIIEQHINEPEKMLAALKVFVQPMKAATRS
Regarding B1, the denaturant m value is 2.2 kcal/mol/M and 1.1 kcal/mol/M and 0.84 kcal/mol/M (CD, Potassium phosphate 10 mM); 2 kcal/mol/M and 0.9 kcal/mol/M under setting [1]; 2 kcal/mol/M and 1.2 kcal/mol/M under setting [2]. Also, the unfolding free energy (CD, Potassium phosphate 10 mM) is 6 kcal/mol and 4.5 kcal/mol and 4.9 kcal/mol; the unfolding free energy under setting [1] is 5.3 kcal/mol and 3.1 kcal/mol; the unfolding free energy under setting [2] was 5.7 kcal/mol and 4.9 kcal/mol.
